Data from paper PMC4113483.

Target: Mu-HSSKLQ-AMC (morpholinocarbonyl-His-Ser-Ser-Lys-Leu-Gln-7-amido-4-methylcoumarin), fluorogenic PSA substrate
Test: Spectrofluorimetric pre-steady-state (burst) and steady-state kinetics of AMC release (excitation 380 nm, emission 460 nm)
Conditions: 37.0 C, 100 mM NaCl, 10 mM CaCl2, 25 mM bis-tris-HCl and 25 mM tris-HCl between pH 6.5 and 9.0 (the buffer used at each pH is not stated)

Prostate-specific antigen (PSA, kallikrein-related peptidase 3, KLK3)
pKES1, group 1 of PSA (unassigned; tentatively Lys95E of the kallikrein loop) (pH 6.5-9.0): 8.59 pH units | pKES2, group 2 of PSA (unassigned; tentatively a histidine, possibly His57 or His172) (pH 6.5-9.0): 5.11 pH units | pKU1, group 1 of PSA (unassigned; tentatively Lys95E of the kallikrein loop) (pH 6.5-9.0): 8.02 pH units | pKU2, group 2 of PSA (unassigned; tentatively a histidine, possibly His57 or His172) (pH 6.5-9.0): 7.61 pH units | Ks (pH 6.5): 490 µM | Ks (pH 7.0): 120 µM | Ks (pH 7.5): 62 µM | Ks (pH 8.0): 42 µM | Ks (pH 8.5): 55 µM | Ks (pH 9.0): 75 µM
